Test results reported in patent publication US20110300156A1 (Genmab, published 2011).

T1: murine tissue factor (TF) on transfected HEK293F cells (murine, UniProt P20352 29-294)
T1 construct: whole, on cells; also called murine TF; TFmm
T1 sequence (looked up): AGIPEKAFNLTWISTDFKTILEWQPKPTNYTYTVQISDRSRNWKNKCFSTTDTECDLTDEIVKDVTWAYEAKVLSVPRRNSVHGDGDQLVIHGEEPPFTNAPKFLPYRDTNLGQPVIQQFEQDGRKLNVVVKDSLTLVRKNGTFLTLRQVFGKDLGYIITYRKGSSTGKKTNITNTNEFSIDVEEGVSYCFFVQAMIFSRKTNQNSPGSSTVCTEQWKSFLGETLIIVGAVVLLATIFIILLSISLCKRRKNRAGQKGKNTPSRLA

B1: anti-TF HuMab 042 (antibody, V domains shown)
VH: EVQLLESGGGLVQPGGSLRLSCAASGFTFSSYGMSWVRQAPGKGLEWVSVISGSGGTTYYADSVKGRFTISRDNSKNTLYLQMNSLRAEDTAVYYCAKAPWTYYFDYWGQGTLVTVSS
VL: not shown
notes: Human monoclonal antibody from HuMab mice
B2: anti-TF HuMab 044 (antibody, V domains shown)
VH: QVQLVESGGGVVQPGRSLRLSCAASGFTFSDYAMHWVRQAPGKGLEWVAVIPYDGDNKYYADSVKGRFTISRDNSKNTLYLQMNSLRAEDTAVYYCAREDWGLEVDYWGQGALVTVSS
VL: AIQLTQSPSSLSASVGDRVTITCRASQGINSALAWYQQKPGKAPKLLIYDASSLESGVPSRFSGSGSGTDFTLTISSLQPEDFATYYCQQFNSYPLTFGGGTKVEIK
notes: as for B1
B3: anti-TF HuMab 011 (antibody, V domains shown)
VH: EVQLLESGGGLVQPGGSLRLSCAASGFTFSNYAMSWVRQAPGKGLEWVSSISGSGDYTYYTDSVKGRFTISRDNSKNTLYLQMNSLRAEDTAVYYCARSPWGYYLDSWGQGTLVTVSS
VL: DIQMTQSPPSLSASAGDRVTITCRASQGISSRLAWYQQKPEKAPKSLIYAASSLQSGVPSRFSGSGSGTDFTLTISSLQPEDFATYYCQQYNSYPYTFGQGTKLEIK
notes: Human monoclonal antibody from HuMab mice; also called HuMab-TF-11
B4: anti-TF HuMab 025 (antibody, V domains shown)
VH: QVQLVESGGGVVQPGRSLRLSCAASGFTFSRYAMHWVRQAPGKGLEWVAVISNDGYNDYYADSVKGRFTVSRDNSKNTLYLQMNSLRAEDTAVYYCARDGQLGRGYFDYWGQGTLVTVSS
VL: EIVLTQSPATLSLSPGERATLSCRASQSVSSYLAWYQQKPGQAPRLLIYDASNRATGIPARFSGSGSGTDFTLTISSLEPEDFAVYYCQQRSNWPLTFGGGTKVEIK
notes: as for B1

Columns and labels:
[1] = biological target: T1, murine tissue factor (TF) on …; assay: FACS on transfected HEK293F cells, 30 µg/mL antibody [panel G]
[2] = biological target: T2, human tissue factor (TF), membrane-bound on cells (human, UniProt P13726 33-295); assay: FACS, MDA-MB-231 cells
T2 construct: whole, on cells; also called cellular TF
Method: (§1) Cells were resuspended in PBS (2×10⁶ cells/ml), put in 96-well V-bottom plates (50 μl/well). 50 μl of serially diluted HuMab in FACS buffer (PBS supplemented with 0.1% BSA and 0.02% Na-azide) was added to the cells and incubated for 30 minutes on ice. After washing three times with FACS buffer, 50 μl of phycoerythrin (PE)-conjugated goat anti-human IgGFc (Jackson ImmunoResearch), diluted 1:100 in FACS buffer, was added. After 30 minutes on ice (in the dark), cells were washed three times, and specific binding of the HuMabs was detected by flow cytometry on a FACSCalibur (BD Biosciences). HuMab-KLH was used as a negative control. Mouse anti-TF followed by PE-conjugated anti-mouse IgGFc was used as positive control. Binding curves were analyzed using non-linear regression (sigmoidal dose-response with variable slope) using GraphPad Prism V4.03 software (GraphPad Software, San Diego, Calif., USA).

[3] = biological target: T2, human tissue factor (TF), …; assay: FACS, A431 cells, 30 µg/mL
Method: as §1

[4] = biological target: T2, human tissue factor (TF), …; assay: cell-based or functional assay
[5] = biological target: T2, human tissue factor (TF), …; assay: FACS, A431 cells
Method: as §1

[6] = biological target: T2, human tissue factor (TF), …; assay: FACS, TF transfected CHO cells (S1015-TF)
Method: as §1

[7] = biological target: T2, human tissue factor (TF), …; assay: cell-based or functional assay; remark: listed apart in the source
[8] = biological target: T1, murine tissue factor (TF) on …; assay: FACS on transfected HEK293F cells, 30 µg/mL antibody [panel H]
[9] = biological target: T2, human tissue factor (TF), …; assay: FACS, Bx-PC3 cells, 30 µg/mL
Method: as §1

[10] = biological target: T2, human tissue factor (TF), …; assay: cell-based or functional assay; remark: listed apart in the source
TF (Innovin) [11] = biological target: T3, TF (Innovin) (UniProt P13726 33-295, limits assumed); assay: cell-based or functional assay
[12] = biological target: T2, human tissue factor (TF), …; assay: FACS, Bx-PC3 cells
Method: as §1

[13] = biological target: T4, TFECDHis (extracellular domain of tissue factor, amino acid 1-251, with C-terminal His tag) (human, UniProt P13726 33-251); assay: competition ELISA, inhibition of FVIIa (100 nM) binding to coated TFECDHis
T4 construct: range 1-251; The stated range 1-251 starts at residue 1 of NP-001984; also called extracellular domain of TF
Method: ELISA plates were coated overnight with TFECDHis (0.5 μg/mL, 100 μL per well). Plates were emptied, blocked with PBS containing 2% (v/v) chicken serum (1 hour, RT), and emptied again. […] Plates were washed and incubated with swine-anti-rabbit IgG-HRP antibody (1:2,500; DAKO). After washing, the immune complexes were visualized using ABTS as a substrate.

[14] = biological target: T2, human tissue factor (TF), …; assay: FACS, MDA-MB-231 cells, 30 µg/mL
Method: as §1

[15] = biological target: T2, human tissue factor (TF), …; assay: FACS, TF transfected CHO cells (S1015-TF), 7.5 µg/mL
Method: as §1

[16] = biological target: T2, human tissue factor (TF), …; assay: FACS on AsPC-1 cells (~175.000 TF molecules/cell) [panel AsPC-1 cells]
Method: as §1
(§2) Binding of anti-TF HuMabs to membrane-bound TF on cell lines expressing different levels of TF was determined by FACS analysis, essentially as described supra. Mouse anti-TF antibody followed by PE-conjugated anti-mouse IgGFc was used as a positive control. Fluorescence was measured on a FACSCantoII. Binding curves were analyzed essentially as described supra, using GraphPad Prism 5 software. The amount of TF molecules on cell lines was determined by Qifi kit (Dako, Glostrup, Denmark), according to the manufacturer's instructions.

[17] = biological target: T1, murine tissue factor (TF) on …; assay: FACS on transfected HEK293F cells, 30 µg/mL antibody [panel B]
[18] = biological target: T4, TFECDHis (extracellular domain of …); assay: SPR BIAcore 3000, HuMab immobilized, TFECDHis analyte
Method: Antibody binding to TF was analyzed by surface plasmon resonance in a BIAcore 3000 (GE Healthcare). TFECDHis was used for the analysis. HuMab antibodies (500 resonance units) were immobilized on the CM-5 sensor chip according to the procedure recommended by the manufacturer. Briefly, after surface activation by EDC and NHS HuMab antibody was injected over the activated CM-5 surface in 10 mM sodium-acetate, pH ranging from 4.0 to 5.5 at 5 μl/min. followed by 1 M Ethanolamine for deactivation. Concentration series of TFECDHis in HBS-EP buffer were injected over the immobilized antibodies at a flow rate of 30 μl/min for 180 sec. Regeneration of the HuMab surface was performed by injection of 10 mM Glycine-HCl pH 2.0 or 10 mM sodium acetate pH 3.0. Kinetic analysis was performed using double reference subtraction and model 1:1 (langmuir) binding analysis.

[19] = biological target: T4, TFECDHis (extracellular domain of …); assay: ELISA, coated TFECDHis, mean of 3
Method: The specificity of the obtained anti-TF HuMabs was evaluated by ELISA. ELISA plates (Microlon; Greiner Bio-One) were coated overnight at +4° C. with 0.5 μg/mL of TFECDHis in PBS, pH 7.4. Coated ELISA plates were emptied and blocked for one hour at room temperature with 2% (v/v) chicken serum (Gibco, Paisley, Scotland) in PBS and washed with PBS containing 0.05% Tween 20 (PBST). Subsequently, HuMabs, serially diluted in PBSTC (PBS supplemented with 2% (v/v) chicken serum and 0.05% (v/v) Tween-20), were incubated for 1 hr at RT under shaking conditions (300 rpm). Bound HuMabs were detected using HRP-conjugated goat-anti-human IgG antibodies (Jackson ImmunoResearch) diluted 1:5,000 in PBSTC, which were incubated for 1 hr at RT under shaking conditions (300 rpm). […] HuMab-KLH (a human monoclonal antibody against KLH (keyhole limpet haemocyanin)), was used as a negative control. Mouse anti-human TF (ERL) was used as positive control (HRP labeled anti-mouse IgG as conjugate). Binding curves were analyzed using non-linear regression (sigmoidal dose-response with variable slope) using GraphPad Prism V4.03 software.

[20] = biological target: T2, human tissue factor (TF), …; assay: FACS on SK-OV-3 cells (~60.000 TF molecules/cell) [panel SK-OV-3 cells]
Method: as §1
as §2, with “Mouse anti-TF antibody followed by PE-conjugated anti-mouse IgGFc was used as a positive control.” left out

[21] = biological target: T2, human tissue factor (TF), …; assay: FACS on MDA-MB-231 cells (~900.000 TF molecules/cell) [panel MDA-MB-231 cells]
Method: as §1, §2

[22] = biological target: T4, TFECDHis (extracellular domain of …); assay: ELISA on coated extracellular domain of TF, detection with HRP-conjugated donkey anti-human H+L
TF (Innovin) [23] = biological target: T3, TF (Innovin); assay: cell-based or functional assay; remark: listed apart in the source
[24] = biological target: T1, murine tissue factor (TF) on …; assay: FACS on transfected HEK293F cells, 30 µg/mL antibody [panel E]

Binder | EC50 [2] | Max MFI [3] | % max inhibition of FVIIa induced ERK phosphorylation (A431) [4] | IC50, inhibition of FVIIa induced ERK phosphorylation (A431) [4] | EC50 [5] | EC50 [6] | IC50, inhibition of FVIIa induced IL-8 release (MDA-MB-231) [7] | max inhibition of FVIIa induced IL-8 release (MDA-MB-231) [7] | Max MFI [9] | EC50 of ADCC, A431 cells [10] | EC50 of ADCC, Bx-PC3 cells [10] | EC50 of ADCC, MDA-MB-231 cells [10] | % max inhibition of FXa generation (TF (Innovin) [11]) | EC50 [12] | max inhibition [13] | Max MFI [14] | Max MFI [15] | Kd [18] | EC50 [19] | IC50, inhibition of blood coagulation (TF induced clotting time) (TF (Innovin) [23]) | further results
B1 | – | – | – | – | – | – | – | – | – | – | – | – | – | – | – | – | – | – | – | – | binding result [1]: no binding (tested: 30 µg/mL)
B2 | 0.87 nM | 2650 | 45% | > 66.6 nM | 1.45 nM | 2.13 nM | 74.6 nM | 17.2% | 1140 | 0.19 nM | 0.12 nM | 0.08 nM | 3% | 1.88 nM | 54% | 1880 | 5020 | – | – | – | binding result [8]: no binding (tested: 30 µg/mL); IC50 [13]: 0.8 nM
B3 | – | 2610 | – | – | 0.2 nM | 1.32 nM | – | – | 1280 | – | – | – | – | 1.01 nM | – | 2140 | 5650 | 3.15 nM | 0.16 nM | 1.6 nM | EC50 (read off the curve) [16]: ~0.07 µg/mL; binding result [17]: no binding (tested: 30 µg/mL); EC50 (read off the curve) [20]: ~0.02 µg/mL; EC50 (read off the curve) [21]: ~0.03 µg/mL; EC50 (read off the curve) [22]: ~0.1 µg/mL
B4 | 0.69 nM | 3170 | 66% | 2.16 nM | 5.19 nM | 0.73 nM | 23.1 nM | 75.6% | 1320 | 0.16 nM | 0.15 nM | 0.24 nM | 19% | 0.88 nM | 90% | 2250 | 5810 | 1.97 nM | 0.34 nM | 2.3 nM | IC50, inhibition of FXa generation (TF (Innovin) [11]): 0.3 nM; binding result [24]: no binding (tested: 30 µg/mL)
